Results: patent publication US20230121197A1, “ANTIBODIES SPECIFICALLY BINDING THE CARBOXYMETHYLATED CATALYTIC SUBUNIT OF PROTEIN PHOSPHATASE 2A” (Medizinische Universität Wien, priority 2020, published 2023)

What was measured:
[1] = target: PP2Ac C-terminal peptide pT304-meL309, ac-HVTRRpTPDYFL-CH3 (human); assay: ELISA, peptide coated at 2 µg/ml, supernatant 1:50
[2] = target: T1, PP2Ac (Homo sapiens, UniProt P67775); assay: Western blot of human cell lysates (HAP1, HEK293; NaOH treatment, Lcmt-1-KO); assay type: binding
T1 construct: the carboxy-terminal methyl group was chemically removed from cellular PP2Ac; endogenous in cells; host or cells: HAP1 wild type, HAP1 Lcmt-1-KO, HEK293Trex / HEK293T
Protocol: NIH3T3 mouse fibroblasts and human embryonic kidney cells (HEK293Trex) were grown in DMEM+10% FCS+2 mM L-glutamine (Sigma, G2150)+100 units/ml Penicillin/0.1 mg/ml Streptomycin at 37° C. in a 7.5% CO2 atmosphere. HAP1 wild type and HAP1 Lcmt-1-KO cells (Leucine carboxyl methyltransferase 1 deleted by CRISPR/Cas9; Horizon Discovery, #C631 and #HZGHC004373c001) were grown in Iscove's Modified Dulbecco's Medium (IMDM, Thermo Fischer Scientific, Life Technologies #12440053) supplemented with 10% (v/v) Fetal Calf Serum (FCS) (Sigma #F7524, lot 104M3333), GlutaMAX™ (Thermo Fischer Scientific, Life Technologies #35050-38, lot 1895829), and Penicillin-Streptomycin solution (Sigma, #P4333, lot 125M4781V) in a 5% CO2 atmosphere. Of note, HAP1 is a near-haploid human cell line that was derived from the chronic myelogenous leukemia (CML) cell line KBM-7 (Carette (2011), Nature 477(7364):340-3). For cell lysis, exponentially growing cells were washed once with ice-cold PBS, once with ice-cold IP-Wash buffer (20 mmol/l Tris pH 8.0, 135 mmol/l NaCl, 10% glycerol) and lysed on the petri-dish in ice-cold IP-Lyse buffer (18 mmol/l Tris pH 8.0, 122 mmol/l NaCl, 9% glycerol, 1% w/v NP-40) for 20 min at 4° C. rocking. Lysed cells were transferred to Eppendorf 1.5 ml tubes and centrifuged for 15 min at 14,000 rpm at 4° C. in a Beckman & Coulter Microfuge 18 centrifuge. The protein concentration was determined with the Protein Assay Dye Reagent (Biorad, 500-0006) and measurement of absorbance at 595 nm in a Hitachi U-2000 spectrophotometer. […]
To test these antibodies in the western blot analysis with methylated and non-methylated full-length PP2Ac the methyl group was chemically removed from cellular PP2Ac by treating lysates of the human cell line, HAP1, with NaOH, as described in Example 2. […] In agreement with the results of the NaOH experiments, […] of PP2Ac were detected in HAP1 cells that lack the PP2A methyltransferase LCMT-1 indicating the preference of these antibodies for non-methylated PP2Ac (FIG. 22). […]

T1 sequence (P67775 whole entry): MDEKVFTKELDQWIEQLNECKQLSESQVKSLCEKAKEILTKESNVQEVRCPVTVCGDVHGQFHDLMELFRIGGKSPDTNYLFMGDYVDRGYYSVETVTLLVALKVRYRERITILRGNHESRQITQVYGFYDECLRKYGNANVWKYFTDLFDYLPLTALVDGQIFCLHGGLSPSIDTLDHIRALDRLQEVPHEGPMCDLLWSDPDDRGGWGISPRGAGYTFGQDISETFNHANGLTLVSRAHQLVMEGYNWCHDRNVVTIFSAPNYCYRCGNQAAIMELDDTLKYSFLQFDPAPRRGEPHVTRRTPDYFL

Molecule	fold higher ELISA signal intensity than with the carboxymethylated peptide without phosphorylation (meL309) [1] [fold]	detection of PP2Ac in HAP1 cells that lack LCMT-1 (Lcmt-1-KO) [2]	detection of PP2Ac in untreated versus NaOH treated cell lysates ([2]; HAP1, HEK293)
7C10-C5 monoclonal antibody (antibody, V domains shown, Used as hybridoma culture supernatant (ELISA, Western blot, IHC) or at 50 µg/mL (SPR); also called 7C10 X63; clone 7C10-C5) VH: DVQLQESGPGLVKPSQSLSLTCSVTGYSITSGYYWNWIRQFPGNKLEWMGYISYDGSNNYNPSLKNRISITRDTSKNQFFLKLNSVTTEDTATYYCAGRFAYWGQGTLVTVSA VL: DVLMTQTPLSLPVSLGDQASISCRSSQSIVHSNGNTYLEWYLQKPGQSPKLLIYKVSNRFSGVPDRFSGSGSGTDFTLKINRVEAEDLGVYYCFQGSHVPWTFGGGTKLEIK	1.6	–	–
7C10-C5: α-carboxymethylation specific mouse monoclonal IgG1 antibody from single clone hybridoma 7C10-C5 (DSM ACC3350) (antibody, Amino acid sequence of the recombinant 7C10-C5 heavy chain; Amino acid sequence of the recombinant 7C10-C5 light chain) heavy: MYRMQLLSCIALSLALVTNSDVQLQESGPGLVKPSQSLSLTCSVTGYSITSGYYWNWIRQFPGNKLEWMGYISYDGSNNYNPSLKNRISITRDTSKNQFFLKLNSVTTEDTATYYCAGRFAYWGQGTLVTVSAAKTTAPSVYPLAPVCGDTTGSSVTLGCLVKGYFPEPVTLTWNSGSLSSGVHTFPAVLQSDLYTLSSSVTVTSSTWPSQSITCNVAHPASSTKVDKKIEPRGPTIKPCPPCKCPAPNLLGGPSVFIFPPKIKDVLMISLSPIVTCVVVDVSEDDPDVQISWFVNNVEVHTAQTQTHREDYNSTLRVVSALPIQHQDWMSGKEFKCKVNNKDLPAPIERTISKPKGSVRAPQVYVLPPPEEEMTKKQVTLTCMVTDFMPEDIYVEWTNNGKTELNYKNTEPVLDSDGSYFMYSKLRVEKKNWVERNSYSCSVVHEGLHNHHTTKSFSRTPGK light: MDMRVPAQLLGLLLLWLSGARCDVLMTQTPLSLPVSLGDQASISCRSSQSIVHSNGNTYLEWYLQKPGQSPKLLIYKVSNRFSGVPDRFSGSGSGTDFTLKINRVEAEDLGVYYCFQGSHVPWTFGGGTKLEIKADAAPTVSIFPPSSEQLTSGGASVVCFLNNFYPKDINVKWKIDGSERQNGVLNSWTDQDSKDSTYSMSSTLTLTKDEYERHNSYTCEATHKTSTSPIVKSFNRNEC	–	no carboxymethylated PP2Ac specific signals were detected	only detected methylated PP2Ac in the untreated cell lysates but not in the NaOH treated lysates
